The labels stand for the following.
B1: SMG5 (parent)
chain: QEKLQVLMAEGLLPAVKVFLDWLR
B2: FAM107A (parent)
chain: HRRGLGVDSKPELQRVLEHRRRNQ
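Further: lentivirally expressed fusions sorted by FACS into six bins by GFP to DsRed ratio, PSI derived from sequencing read proportions per bin multiplied by bin number.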

The variants in one series derive from B1. The experiment in a line: protein stability index of a GFP-peptide fusion (GPS, HEK-293T) (PSI 1-6); higher = more stable. As to conditions: c terminus: a fixed tail appended.
Take QEKLQVLMAEGLLPAVKVFLDWMR: the protein stability index came to 4.59.

On to QEKLQVLMAEGLLPAVKVFLDWHR, for which the protein stability index came to 1.27.

In another series the parent is B2. Described as above. As to conditions: c terminus: a fixed tail appended.
Take HRRGLGVDSKPELQRVLEHRHRNQ: the protein stability index was 4.38. Same read-out and setting: the figure for HRRGLGVDSKPELQRVLEHRDRNQ is 4.11; for HRRGLGVDSKPELQRVLEHRCRNQ it is 3.39; for HRRGLGVDSKPELQRVLEHRRRIQ it is 2.32.

Take HRRGLGVDSKPELQRVLEHRRRPQ: the protein stability index turned out to be 3.03. As to HRRGLGVDSKPELQRVLEHRRRAQ, the protein stability index was 2.99. In the case of HRRGLGVDSKPELQRVLEHRRRDQ, the protein stability index was 3.85. On the same count and under the same terms, the figure for HRRGLGVDSKPELQRKLEHRRRNQ is 4.47.

On to HRRGLGVDSKPELQRILEHRRRNQ, for which the protein stability index was determined as 3.63.

HRRGLGVDSKPELQRALEHRRRNQ: the protein stability index was 4.83. On the same count and under the same terms, the figure for HRRGLGVDSKPELQRRLEHRRRNQ is 4.67; for HRRGLGVDSKPELQRFLEHRRRNQ it is 4.23. Consider HRRGLGVDSKPELQRNLEHRRRNQ, for which the protein stability index worked out at 4.76. The same measure, in the same setting: the figure for HRRGLGVDSKPELQRVLEHRRNNQ is 3.48; for HRRGLGVDSKPELQRVLEHRRSNQ it is 4.79. Same read-out and setting: under HRRGLGVDSKPELQRVLEHRRWNQ stands 2.46. On to HRRGLGVDSKPELQRVLEHRRQNQ, for which the protein stability index turned out to be 3.57. On the same count and under the same terms, under HRRGLGVDSKPELQRVLEHRRTNQ stands 3.76; under HRRGLGVDSKPELQRVLEHRRYNQ, 3.82. Still for that read-out and setting: under HRRGLGVDSKPELQRVLEHRRPNQ stands 4.36; under HRRGLGVDSKPELQRVLEHRRHNQ, 3.55.

In the case of HKRGLGVDSKPELQRVLEHRRRNQ, the protein stability index worked out at 3.05. The same measure, in the same setting: the figure for HYRGLGVDSKPELQRVLEHRRRNQ is 5.39; for HFRGLGVDSKPELQRVLEHRRRNQ it is 4.86.

Take HRRGLGVDSKPEKQRVLEHRRRNQ: the protein stability index is 4.97. Consider HRRGLGVDSKPEQQRVLEHRRRNQ, for which the protein stability index came out at 5.33.

In the case of HRRGLGVDWKPELQRVLEHRRRNQ, the protein stability index turned out to be 3.55. For HRRGLGVDGKPELQRVLEHRRRNQ, the protein stability index worked out at 4.41. With HRRGLGVDIKPELQRVLEHRRRNQ, the protein stability index was 4.66. CRRGLGVDSKPELQRVLEHRRRNQ: the protein stability index was found to be 3.42.

For the variant HRRFLGVDSKPELQRVLEHRRRNQ, the protein stability index is 4.72. Same read-out and setting: the figure for HRRALGVDSKPELQRVLEHRRRNQ is 3.35; for HRRNLGVDSKPELQRVLEHRRRNQ it is 4.42. In the case of HRRVLGVDSKPELQRVLEHRRRNQ, the protein stability index amounted to 4.87.

Turning to HRRQLGVDSKPELQRVLEHRRRNQ, the protein stability index was 4.33. HRRKLGVDSKPELQRVLEHRRRNQ: the protein stability index is 5.72.

In the case of HRRGLQVDSKPELQRVLEHRRRNQ, the protein stability index stood at 3.18. Still for that read-out and setting: the figure for HRRGLGVDSKPELQRVLEYRRRNQ is 3.72; for HRRGLGVDSKPELQRVLECRRRNQ it is 2.01; for HRRGLGVDSKPELQRVLEPRRRNQ it is 4.29.

Consider HRRGLGVDSKPELQRVLEGRRRNQ, for which the protein stability index stood at 4.68. As to HRRGLGVDSKPELQRVLEQRRRNQ, the protein stability index was 3.67. The same measure, in the same setting: under HRRGTGVDSKPELQRVLEHRRRNQ stands 4.82; under HRRGYGVDSKPELQRVLEHRRRNQ, 4.66; under HRRGEGVDSKPELQRVLEHRRRNQ, 4.34. In the case of HRRGFGVDSKPELQRVLEHRRRNQ, the protein stability index came to 4.13.

As to HRRGLGVDSKPELQRVLYHRRRNQ, the protein stability index was 4.17. For HRRGLGVDSKPELQRVLMHRRRNQ, the protein stability index came out at 2.48. Still for that read-out and setting: the figure for HRRGLGVDSKPELQRVLAHRRRNQ is 3.57; for HRRGLGVDSKPELQRVLNHRRRNQ it is 4.02. Still for that read-out and setting: the figure for HRRGLGVDSKPELQRVLFHRRRNQ is 3.93; for HRGGLGVDSKPELQRVLEHRRRNQ it is 5.11; for HRPGLGVDSKPELQRVLEHRRRNQ it is 4.55. HRFGLGVDSKPELQRVLEHRRRNQ: the protein stability index is 3.9. Same read-out and setting: the figure for HRKGLGVDSKPELQRVLEHRRRNQ is 4.52; for HRRGLGVDSKPELQRVIEHRRRNQ it is 4.76; for HRRGLGVDSKPELQRVPEHRRRNQ it is 4.7. On the same count and under the same terms, under HRRGLGVDSKPELQRVCEHRRRNQ stands 5.08; under HRRGLGVDSKPELTRVLEHRRRNQ, 4.28; under HRRGLGVDSKPELGRVLEHRRRNQ, 4.8. On the same count and under the same terms, the figure for HRRGLGVDSKPELVRVLEHRRRNQ is 3.86; for HRRGLGVDSKPTLQRVLEHRRRNQ it is 2.98; for HRRGLGVDSKPLLQRVLEHRRRNQ it is 4.02.

On to HRRGLGVDSKPELQGVLEHRRRNQ, for which the protein stability index was determined as 5.35.

Consider HRRGLGVDSKPELQAVLEHRRRNQ, for which the protein stability index came to 4.26. HRRGLGVDSKPELQKVLEHRRRNQ: the protein stability index worked out at 3.31.

Regarding HRRGLGVYSKPELQRVLEHRRRNQ, the protein stability index worked out at 2.41. The same measure, in the same setting: under HRRGLGVGSKPELQRVLEHRRRNQ stands 3.42; under HRRGLGVASKPELQRVLEHRRRNQ, 2.92. Same read-out and setting: under HRRGLGVRSKPELQRVLEHRRRNQ stands 4.26; under HRRGLGVPSKPELQRVLEHRRRNQ, 2.54; under HRRGLGVFSKPELQRVLEHRRRNQ, 2.23. As to HRRGLGVDSKPELQRVLEHRRRNV, the protein stability index was found to be 3.24. Still for that read-out and setting: the figure for HRRGLGVDSKPELQRVLEHRRRNC is 3.59; for HRRGLGVDSKPELQRVLEHRRRNL it is 2.49. The same measure, in the same setting: the figure for HRRGLGVDSKPELQRVLEHRRRNY is 2.79; for HRRGLGVDSKPELQRVLEHRRRNH it is 3.64. On the same count and under the same terms, under HRRGLGYDSKPELQRVLEHRRRNQ stands 4.23; under HRRGLGQDSKPELQRVLEHRRRNQ, 4.95. Turning to HRRGLGMDSKPELQRVLEHRRRNQ, the protein stability index amounted to 3.62. For the variant HRRGLGVDSKYELQRVLEHRRRNQ, the protein stability index is 2.59.

Regarding HRRGLGVDSKKELQRVLEHRRRNQ, the protein stability index stood at 3.82.

Take HRRGLGVDSKVELQRVLEHRRRNQ: the protein stability index stood at 3.95. On to HRRGLGVDSLPELQRVLEHRRRNQ, for which the protein stability index stood at 2.36. For HRRGLGVDSAPELQRVLEHRRRNQ, the protein stability index was 4.56.

HRRGLGVDSTPELQRVLEHRRRNQ: the protein stability index turned out to be 4.38. On to HRRGLGVDSHPELQRVLEHRRRNQ, for which the protein stability index turned out to be 4.18.

Take HRRGLGVDSDPELQRVLEHRRRNQ: the protein stability index was 4.89. Same read-out and setting: the figure for HRRGLGVDSKPELQRVLEHKRRNQ is 4.79; for HRRGLGVDSKPELQRVLEHNRRNQ it is 4.04. Same read-out and setting: the figure for HRRGLGVDSKPELQRVLEHSRRNQ is 4.27; for HRRGLGVDSKPELQRVLEHGRRNQ it is 3.95.

Values taken from the supplement of paper PMC10567573.
